Test results taken from publication PMC9975281, “Enolpyruvate transferase MurAA^A149E, identified during adaptation of Enterococcus faecium to daptomycin, increases stability of MurAA–MurG interaction” (The Journal of Biological Chemistry, 2023).

Assays:
[1] = system: C=C(OP(=O)(O)O)C(=O)O; assay: steady-state kinetics (Km), EnzChek phosphate assay; type: biochemical, Enterococcus faecium
[2] = target: Enterococcus faecium MurG (Enterococcus faecium) (UniProt Q3Y2H8); assay: MST; 50 nM His-MurG labelled with RED-tris-NTA, serial dilution of MurAA^WT (402 uM to 12.3 nM) or MurAA^A149E (69.9 uM to 2.13 nM); 20 mM Hepes pH 7.5, 150 mM NaCl, 0.05% Tween; Monolith NT.115; triplicate
[3] = system: C=C(OP(=O)(O)O)C(=O)O; assay: purified protein; conditions: covalently bound within the active site at Cys119
[4] = target: T1, MurAA^A149E (Enterococcus faecium, UniProt A0A133CTP6, A149E); assay: microscale thermophoresis in the presence of UDP-GlcNAc; type: binding
T1 construct: gene murA; full-length

[5] = target: T2, MurAA (Enterococcus faecium, UniProt A0A133CTP6); assay: ([…] Å); MST in the presence of UDP-GlcNAc; type: binding
T2 construct: gene murA; full-length

[6] = target: T2, MurAA; assay: X-ray crystal structure ([…] Å), co-purified ligand, weak/partial density; type: binding

MurAA^A149E (Enterococcus faecium; A149E)
Km [1]: 7.26 ± 1.05 µM
kcat [1]: 1.04 ± 0.04 s⁻¹

Enterococcus faecium MurAA, wildtype (UDP-N-acetylglucosamine enolpyruvate transferase) (enzyme)
Kd [2]: 27700 nM

MurAA (Enterococcus faecium)
Km [3]: 6.35 ± 0.88 µM
kcat [3]: 1.81 ± 0.06 s⁻¹

C[C@@H]1O[C@@H]1P(=O)(O)O [FOS, fosfomycin]
Kd [4]: 470 ± 60 nM
Kd [5]: 1870 ± 670 nM

CC(=O)N[C@H]1[C@@H](OP(=O)(O)OP(=O)(O)OC[C@H]2O[C@@H](n3ccc(=O)[nH]c3=O)[C@H](O)[C@@H]2O)O[C@H](CO)[C@@H](O)[C@@H]1O[C@H](C)C(=O)O [UDP-MurNAc]
X-ray crystal structure (2.65 Å), co-purified ligand, weak/partial density [6]: Cys119-PEP adduct and UDP–MurNAc at the interface of two domains in E. faecium MurAA

Enterococcus faecium MurAA^A149E (enzyme)
Kd [2]: 1720 nM
